These results are taken from PMC4148589.

The test deals with CaV1.1 chimera containing the I–II loop of the CaV2.1 α1A subunit (pc-α1SI–IIA). The experiment in a line: FRAP.

Sequence of skeletal muscle β1a subunit, GFP-tagged (pcDNA3-β1a-GFP) (P19517 whole entry): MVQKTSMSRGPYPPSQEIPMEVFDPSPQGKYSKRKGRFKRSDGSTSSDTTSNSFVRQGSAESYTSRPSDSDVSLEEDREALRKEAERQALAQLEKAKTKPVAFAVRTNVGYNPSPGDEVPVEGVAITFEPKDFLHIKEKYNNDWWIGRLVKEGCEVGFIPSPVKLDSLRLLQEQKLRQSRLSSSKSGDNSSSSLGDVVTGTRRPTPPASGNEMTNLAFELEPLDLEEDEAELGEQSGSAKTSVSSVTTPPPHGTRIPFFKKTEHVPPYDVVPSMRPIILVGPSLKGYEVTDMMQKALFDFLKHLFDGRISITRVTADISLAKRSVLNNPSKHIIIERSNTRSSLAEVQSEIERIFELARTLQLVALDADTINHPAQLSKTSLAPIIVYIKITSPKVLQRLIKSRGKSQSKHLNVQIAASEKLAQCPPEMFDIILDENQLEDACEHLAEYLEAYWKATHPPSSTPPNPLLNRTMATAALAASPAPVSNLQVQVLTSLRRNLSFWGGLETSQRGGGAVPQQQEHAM

With “skeletal muscle β1a subunit, GFP-tagged (pcDNA3-β1a-GFP) (from UniProt P19517 1-524) (natural protein)”, the R75 (fractional fluorescence recovery 75 s after bleaching) was found to be 20.5%.
